# Legend:
# [1] = molecular target: T1, Gal3 peptides (SEQ ID NOs: 3-26) (Homo sapiens, UniProt P17931); experiment: Gal3 peptide library binding ELISA (epitope mapping); conditions: for binding to Gal3 Peptide 1: Peptide 1 (SEQ ID NO: 3), amino acids 1-20 of Gal3; for binding to Gal3 Peptide 7: Peptide 7 (SEQ ID NO: 9), amino acids 61-80 of Gal3; for binding to Gal3 Peptide 6: Peptide 6 (SEQ ID NO: 8)
# T1 construct: a library of 24 amino acid peptides representing portions of Gal3; purchased LifeTein custom order
# Procedure: To identify the epitopes to which Gal3 antibodies with and without Gal3-INSR blocking activity bound, a library of 24 amino acid peptides representing portions of Gal3, depicted in FIG. 27, was produced and the ability of each peptide to bind Gal3 antibodies was evaluated by ELISA. At least 2 μg/ml of hGal3 peptide in 50 μl of PBS or 0.1 μg/ml of full-length human Gal3 protein (GenScript) and human Galectin-3 protein (Acro Biosystems, GA3-H5129) were diluted in PBS (Corning, 21-030-CM) to concentrations of at least 2 μg/ml or 0.1 μg/ml, respectively, and added to the wells of a 96-well ELISA plate (Thermo Fisher, 44-2404-21). After incubating the plate at 4° C. overnight, the plate was washed three times with PBST (PBS with 0.05% Tween 20 [VWR, 0777]). The plate was then blocked for an hour with 2% BSA (EMD Millipore, 126609) in PBST at room temperature with gentle rocking. Thereafter, the 2% BSA in PBST was discarded and human Galectin-3 hybridoma supernatants or antibodies were diluted in 2% BSA in PBST to concentrations of at least 0.1 μg/ml and added to the wells. The plate was incubated for an hour at room temperature with gentle rocking and then washed three times with PBST. Afterwards, Goat Anti-Mouse IgG-HRP (Jackson ImmunoResearch, 115-036-1461) or Goat Anti-Rat IgG HRP (Abcam, ab205720) diluted in 2% BSA in PBST (1:4000) were added to the wells. The plate was incubated for 30 minutes to 1 hour at room temperature with gentle rocking and then washed three times with PBST. TMB substrate (Thermo Scientific, 34029) was then added to each well. The reaction was stopped with 1M HCl (JT Baker, 5620-02) and read using a plate reader (Molecular Devices) at absorbance of 450 nm.
# Human Gal3 peptides (LifeTein, custom order) and human Gal3 proteins (R&D Systems, 8259-GA; TrueBinding, QCB200349) were diluted in PBS (Corning, 21-030-CM) to concentrations of at least 100 μg/mL (peptides) or 1 μg/mL (proteins), and added to the wells of several 96-well ELISA plates (Thermo Fisher, 44-2404-21). After incubating the plates at 4° C. overnight, the plates were washed three times with PBST (PBS with 0.05% Tween 20 [VWR, 0777]). The plates were then blocked for an hour with 2% BSA (EMD Millipore, 126609) in PBST at room temperature with gentle rocking. Thereafter, the 2% BSA in PBST was discarded and Gal3-binding antibodies (reformatted hIgG4 [S228P]) were diluted in 2% BSA in PBST to concentrations of 5 μg/mL and added to the wells. The plates were incubated for an hour at room temperature with gentle rocking and then washed three times with PBST. Afterwards, Peroxidase AffiniPure F(ab′)2 Fragment Goat Anti-Human IgG (H+L) polyclonal antibody (Jackson ImmunoResearch, 109-036-003), was diluted in 2% BSA in PBST (1:4000) and added to the wells. The plates were incubated for 1 hour at room temperature with gentle rocking and then washed three times with PBST. TMB substrate (Thermo Scientific, 34029) was then added to each well. The reaction was stopped with 1M HCl (JT Baker, 5620-02) and read using a plate reader (Molecular Devices) at absorbance of 450 nm.
# human Gal3 = molecular target: T2, human Gal3 (Homo sapiens, UniProt P17931); experiment: Antibody binning assays (competition for binding to Gal3); conditions: binning per Examples 3 and 18
# T2 construct: His; purchased AcroBio GA3-H5129
# Procedure: To determine whether Gal3-binding antibodies with Gal3-INSR blocking activity bind to the same or overlapping regions of the Gal3 molecule, antibody binning assays were performed to assess the ability of antibodies to simultaneously bind Gal3. Amine-reactive probes were loaded onto a Gator biosensor (Probe Life, Palo Alto, Calif.), equilibrated in dH20 for 60 seconds, dipped into 100 μl EDC 0.2M/NHS 0.05M activation buffer for 30 seconds, then dipped into a solution of […] human Gal3-His in 10 mM NaOAc buffer, pH 5 until binding was saturated, and quenched in 1 M ethanolamine pH 8.5 for 300 seconds. Following Gal3-His loading, tips were dipped in 20 μg/mL saturating antibody, then successively dipped into 5 μg/mL competing antibody.
# The epitope binning assay was done in a sandwich format on the high-throughput SPR-based Carterra LSA unit (CarterraBio, Salt Lake City, Utah). First, the purified antibodies were diluted to 10 μg/ml concentration in 10 mM NaOAc (pH 5.0) and then were covalently coupled via amine group to HC200M chip activated by EDC and S-NHS to immobilize antibodies to different positions of a 384-spot array. One hundred thirty-eight binning cycles were run on the array of immobilized antibodies. In each cycle, first, human Gal3 (AcroBio GA3-H5129) was injected over the entire array to bind to different antibodies (primary antibody), followed by one antibody (secondary antibody) selected among the panel of 150 anti-GAL3 antibodies tested. At the end of each cycle, the array was regenerated by 10 mM Glycine (pH 2.0) to remove bound antigen and secondary antibody from the array. The data analysis was done using the Epitope software by CarterraBio.
# T2 sequence (P17931 whole entry): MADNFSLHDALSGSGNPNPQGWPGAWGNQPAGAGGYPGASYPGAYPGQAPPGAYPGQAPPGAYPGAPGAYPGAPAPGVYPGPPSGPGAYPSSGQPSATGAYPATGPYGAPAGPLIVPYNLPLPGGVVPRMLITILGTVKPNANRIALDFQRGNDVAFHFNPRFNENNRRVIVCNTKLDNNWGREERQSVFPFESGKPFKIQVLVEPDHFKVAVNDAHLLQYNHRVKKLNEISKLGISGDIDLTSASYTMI
binding to Gal3 Peptide 1 [1],binding to Gal3 Peptide 7 [1],binding to Gal3 Peptide 6 ([1]; amino acids 51-70 of Gal3),Molecule,further results
bind and bound,bind and bound,–,"F847C.12F12: anti-Gal3 antibody (antibody, V domains shown) VH: QIQLVQSGPELKKPGETVKISCKASGYTFTNYGMNWVKQAPGKGLKWMGWINTYTGEPTYVDDFKGRFAFSLETSASTAYLRINNLKNEDTATYFCAKFGNYVGAMDYWGQGTSVTVSS VL: DIQVIQSPSSLSASLGDTITITCHASQNINVWLSWYQQKPGNIPKLLIYKASNLHTGVPSRFSGSGSGTGFTLTISSLQPEDIATYYCQQGQSYPYTFGGGTKLELK",–
bind and bound,bind and bound,–,"F847C.26F5: anti-Gal3 antibody (antibody, V domains shown) VH: QIQLVQSGPEVKKPGETVKISCKASGYIFTNYGMNWVKQAPGKGLKWMGWINTYTGEPTYTDDFKGRFAFSLETSASTAYLQINNLKNEDTATYFCAKFGNYVGAMDYWGQGTSVTVSS VL: EIKMNQSPSSLSASLGDTITITCHASQNINVWLSWYQQKPGNIPKLLIYKASNLHTGVPSRFSGSGSGTGFTLTISSLQPEDIATYYCQQGQSYPYTFGGGTKLELK",–

# The remaining lines, values behind:
Molecule,binding to Gal3 Peptide 1 [1],binding to Gal3 Peptide 7 [1],binding to Gal3 Peptide 6 ([1]; amino acids 51-70 of Gal3),further results
"F846C.1H5: anti-Gal3 antibody (antibody, V domains shown) VH: EVQLLESGGGLVKPGGSLKLSCAASGFTFSSYAMSWVRQTPEKRLEWVASISSGGDTYYPDSVKGRFTISRDNARNILYLQMSSLRSEDTAMYYCASYGNSLFDYWGQGTTLTVSS VL: DVVMTQTPLSLPVSLGDQASISCRSSQSLVHNSGNTYLHWYLQRPGQSPNLLIYKVSNRFSGVPDRFSGSGSGTDFTLKISRVAAEDLGVYFCSQSTHVPPTFGGGTKLEIK",bind and bound,–,–,–
"19B5.2E6: anti-Gal3 monoclonal antibody (antibody, V domains shown) VH: QIQLVQSGPELKKPGETVKISCKASGYTFTTYAMSWVKQAPGKGLKWMGWINTYSGVPTYADDLKGRFAFSLETSASTAYLQINNLKNEDTATYFCARGPYAMDYWGQGTSVTVSS VL: DIQMTQTTSSLSASLGDRVTISCSASQGINNYLNWYQQKPDGTVKLLIYYASSLHSGVPSRFSGSGSGTDYSLTISNLEPEDIATYYCQQYSQVPYTFGSGTKLEIK",bind and bound,bind and bound,–,epitope bin (competitive binding to Gal3) (human Gal3): bin 3
"F847C.10B9: anti-Gal3 antibody (antibody, V domains shown) VH: QIQLVQSGPEVKKPGETVKISCKASGYIFTNYGMNWVKQAPGKGLKWMGWINTYTGEPTYTDDFKGRFAFSLETSASTAYLQINNLKNEDTATYFCAKFGNYVGAMDYWGQGTSVTVSS VL: DIRMTQSPSSLSASLGDTITITCHASQNINVWLSWYQQKPGNIPKLLIYKASNLHTGVPSRFSGSGSGTGFTLTISSLQPEDIATYYCQQGQSYPYTFGGGTKLELK",bind and bound,bind and bound,–,–
"TB006: anti-Gal3 antibody (antibody, V domains shown) VH: QVQLVQSGAEVKKPGASVKVSCKASGYSFTNYYMHWVRQAPGQRLEWMGWIYPGSGNTNYNEKFQGRVTITADTSASTAYMELSSLRSEDTAVYYCSTAPGGFDVWGQGTTVTVSS VL: DIVMTQTPLSLSVTPGQPASISCKSSKSLLHSDGITYLYWYLQKPGQSPQLLIYRMSNLASGVPDRFSGSGSGTDFTLKISRVEAEDVGVYYCAQMLEFPLTFGQGTKLEIK",–,–,–,"binding to Gal3 Peptide 6 ([1]; amino acids 51-70 of Gal3, listed as IMT006 (TB006)): bind and bound"
"13A12.2E5: anti-Gal3 monoclonal antibody (antibody, V domains shown) VH: QIQLVQSGPELKKPGETVKISCKTSGYKFKTYVMSWVKQAPGKALKWMGWINTYSGVPTYADDFKGRFAFSLETSASTAYLEIINLKNEDTATYFCARDGNYGDPMDYWGQGTSVTVSS VL: DVVMTQTPLTLSVAIGQPASISCKSSQSLLYTNGKTYLNWLLQRPGQSPKRLIYLLSKLDSGVPDRFSASGSGTDFTLKISRVEAEDLGVYYCLQSTHFPLTFGAGTKLEMK",–,–,bind and bound,"binding to Gal3 Peptide 4 ([1]; Peptide 4 (SEQ ID NO: 6), amino acids 31-50 of Gal3): bind"
"F846C.1B2: anti-Gal3 antibody (antibody, V domains shown) VH: QIQLVQSGPELKKPGETVKISCKASGYTFTNYGMNWVKQAPGKGLKWMGWINTYTGEPSYADDFKGRFAFSLETSASTAYLQINNLKNEDMATYFCARWGGYAGDYYAMDFWGQGTSVTVSS VL: NIWLTQSPSSLAVSAGEMVTMTCKSSQSVLYSSNQKNYLAWYQQKPGQSPKLLIYWASTRESGVPDRFTGSGSGTDFSLTISSVQAEDLAVYYCHQYLSSLTFGAGTKLELK",–,bind and bound,bind and bound,binding to Gal3 Peptide 5 ([1]; Peptide 5 (SEQ ID NO: 7)): bind
"F846C.2H3: anti-Gal3 antibody (antibody, V domains shown) VH: QIQLVQSGPELKKPGETVKISCKASGYTFTNYGMNWVKQAPGKGLKWMGWINTYTGEPSYADDFKGRFAFSLETSASTAYLQINNLKNEDMATYFCARWGGYDGDYYAMDYWGQGTSVTVSS VL: NIMMTQSPSSLAVSAGEKVTMSCKSSQSVLYSSNQKNYLAWYQQKPGQSPKLLIYWASTRESGVPDRFTGSGSGTDFTLTISSVQPEDLAVYYCHQYLSSLTFGAGTKLELK",–,–,bind and bound,–
"20D11.2C6: anti-Gal3 monoclonal antibody (antibody, V domains shown) VH: EVQLQQSGPELVKPGASVKISCKASGYTFTDFYINWVKQSHGKSLEWIGDINPKNGGINYNPKFKIKATLTVDKSSSTSYMDLRGLTSEDSAVYYCTSGYGFPYWGQGTLVTVSA VL: DIQMNQSPSSLSASLGDTITITCRASQNIYIWLSWYQQKPGNIPKLLIYKASNLHTGVPSRFSGSGSGTDFTLTISTLQPEDIATYFCLQGQSYPLTFGAGTKLEMK",bind and bound,bind and bound,bound,epitope bin (competitive binding to Gal3) (human Gal3): bins 5
